# Assay results reported in patent US20090004210A1.
# Molecular target: monoclonal antibody (mAb) to detect Aβ42-derived peptide species with free N-terminus (generated in Example 1)
# Experiment: competition ELISA: soluble peptide against plate-bound DAEFRH-C-BSA for the biotinylated mAb, FIG. 8
row,Molecule,IC50
1,GKEFRTC [Peptide 4035 GKEFRT],< 0.5 µg/mL
2,GPEFRWC [Peptide 4034 GPEFRW],< 0.5 µg/mL
3,DWELRQC [Peptide 4032 DWELRQ],< 0.5 µg/mL
4,DAELRYC [Peptide 4031 DAELRY],< 0.5 µg/mL
5,SLEFRFC [Peptide 4033 SLEFRF],< 0.5 µg/mL
6,AYEFRHC [Peptide 4036 AYEFRH],> 0.5 µg/mL

# Molecular target: monoclonal antibody (mAb) to detect Aβ42-derived peptide species with free N-terminus (generated in Example 1)
# Experiment: competition ELISA: soluble peptide against plate-bound DAEFRH-C-BSA for the biotinylated mAb, FIG. 2
row,Molecule,IC50
1,YAEFRGC [Peptide 3005 YAEFRG],> 0.5 µg/mL
2,EAEFRGC [Peptide 3006 EAEFRG],< 0.5 µg/mL
3,DYEFRGC [Peptide 3007 DYEFRG],< 0.5 µg/mL
4,DKELRIC [Peptide 3001 DKELRI],< 0.5 µg/mL
5,DWELRIC [Peptide 3002 DWELRI],> 0.5 µg/mL

# Molecular target: monoclonal antibody (mAb) to detect Aβ42-derived peptide species with free N-terminus (generated in Example 1)
# Experiment: competition ELISA: soluble peptide against plate-bound DAEFRH-C-BSA for the biotinylated mAb, FIG. 4
row,Molecule,IC50
1,SWEFRTC [Peptide 4002 SWEFRT],< 0.4 µg/mL

# Molecular target: monoclonal antibody (mAb) to detect Aβ42-derived peptide species with free N-terminus (generated in Example 1)
# Experiment: competition ELISA: soluble peptide against plate-bound DAEFRH-C-BSA for the biotinylated mAb, FIG. 9
row,Molecule,IC50
1,Peptide 4062 DKE(Nle)R,> 0.5 µg/mL
2,Peptide 4064 DKE(Cha)R,> 0.5 µg/mL
3,Peptide 4063 DKE(Nva)R,> 0.5 µg/mL

# Molecular target: monoclonal antibody (mAb) to detect Aβ42-derived peptide species with free N-terminus (generated in Example 1)
# Experiment: competition ELISA: soluble peptide against plate-bound DAEFRH-C-BSA for the biotinylated mAb, FIG. 5
row,Molecule,IC50
1,DKELKIC [Peptide 1236 DKELKI],> 5 µg/mL
2,DWEFRDAC [Peptide 1241 DWEFRDA],< 0.5 µg/mL
3,DRELKIC [Peptide 1237 DRELKI],> 5 µg/mL
4,DRELRIC [Peptide 1235 DRELRI],< 0.5 µg/mL
5,EYEFRGC [Peptide 1239 EYEFRG],> 0.5 µg/mL
6,DKELRC [Peptide 1238 DKELR],< 0.5 µg/mL

# Molecular target: monoclonal antibody (mAb) to detect Aβ42-derived peptide species with free N-terminus (generated in Example 1)
# Experiment: competition ELISA: soluble peptide against plate-bound DAEFRH-C-BSA for the biotinylated mAb, FIG. 7
row,Molecule,IC50
1,DWEFRDC [Peptide 4025 DWEFRD],< 0.5 µg/mL
2,SWELRQAC [Peptide 4020 SWELRQA],> 0.5 µg/mL
3,SQEFRTPC [Peptide 4023 SQEFRTP],< 0.5 µg/mL
4,SSEFRVSC [Peptide 4024 SSEFRVS],< 0.5 µg/mL
5,SYEFRHHC [Peptide 4022 SYEFRHH],< 0.5 µg/mL
6,SVEFRYHC [Peptide 4021 SVEFRYH],< 0.5 µg/mL

# Molecular target: monoclonal antibody (mAb) to detect Aβ42-derived peptide species with free N-terminus (generated in Example 1)
# Experiment: competition ELISA: soluble peptide against plate-bound DAEFRH-C-BSA for the biotinylated mAb, FIG. 3
row,Molecule,IC50
1,ELEFRGC [Peptide 3008 ELEFRG],< 5 µg/mL
2,SFEFRGC [Peptide 3009 SFEFRG],< 5 µg/mL
